Experimental data from the supplement of paper PMC9112550, “Optimization of the antimicrobial peptide Bac7 by deep mutational scanning” (BMC Biology, 2022).

system: Escherichia coli TOP10; experiment: shrunken log2 fold change of peptide-encoding DNA abundance (4.5 h post-induction vs induction); higher = less antimicrobial activity (less host growth inhibition); conditions: time post-induction: 4.5 h; library: site-saturation at positions 5, 18, 19, 20
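Further: peptides expressed intracellularly from a pBAD plasmid library in pooled LB shake-flask culture, induced with 0.3% L-arabinose, DNA abundance read by NGS, three biological replicates, DESeq2 with apeglm shrinkage.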

Row | Sequence | shrunken log2 fold change
1 | RRIRDRPPRLPRPRPRPSITPRP | -0.197
2 | RRIRDRPPRLPRPRPRPSKEPRP | -0.031
3 | RRIRDRPPRLPRPRPRPSKTPRP | 0.0521
4 | RRIRDRPPRLPRPRPRPSLKPRP | 0.155
5 | RRIRDRPPRLPRPRPRPSLNPRP | 0.138
6 | RRIRDRPPRLPRPRPRPSLRPRP | 0.188
7 | RRIRDRPPRLPRPRPRPSMCPRP | 0.123
8 | RRIRDRPPRLPRPRPRPSMNPRP | -0.152
9 | RRIRDRPPRLPRPRPRPSMRPRP | 0.334
10 | RRIRDRPPRLPRPRPRPSNAPRP | -0.184
11 | RRIRDRPPRLPRPRPRPSPLPRP | -0.126
12 | RRIRDRPPRLPRPRPRPSRIPRP | -0.307
13 | RRIRDRPPRLPRPRPRPSSLPRP | 0.15
14 | RRIRDRPPRLPRPRPRPSSYPRP | -0.738
15 | RRIRDRPPRLPRPRPRPSTWPRP | -0.0672
16 | RRIRDRPPRLPRPRPRPSVDPRP | 0.0621
17 | RRIRDRPPRLPRPRPRPSVMPRP | 0.198
18 | RRIRDRPPRLPRPRPRPSVNPRP | 0.0833
19 | RRIRDRPPRLPRPRPRPSYCPRP | -0.046
20 | RRIRDRPPRLPRPRPRPTAHPRP | 0.547
21 | RRIRDRPPRLPRPRPRPTAIPRP | 0.394
22 | RRIRDRPPRLPRPRPRPTALPRP | 0.573
23 | RRIRDRPPRLPRPRPRPTAPPRP | 0.365
24 | RRIRDRPPRLPRPRPRPTATPRP | 2.57
25 | RRIRDRPPRLPRPRPRPTAYPRP | -0.22

Row | Sequence | shrunken log2 fold change
26 | RRIRDRPPRLPRPRPRPTCRPRP | 0.175
27 | RRIRDRPPRLPRPRPRPTDQPRP | 0.118
28 | RRIRDRPPRLPRPRPRPTEPPRP | 0.185
29 | RRIRDRPPRLPRPRPRPTESPRP | -0.00177
30 | RRIRDRPPRLPRPRPRPTFCPRP | 0.164
31 | RRIRDRPPRLPRPRPRPTGHPRP | 0.502
32 | RRIRDRPPRLPRPRPRPTGWPRP | 1.21
33 | RRIRDRPPRLPRPRPRPTHDPRP | 0.666
34 | RRIRDRPPRLPRPRPRPTHIPRP | -0.656
35 | RRIRDRPPRLPRPRPRPTIAPRP | 0.521
36 | RRIRDRPPRLPRPRPRPTISPRP | -0.0421
37 | RRIRDRPPRLPRPRPRPTKEPRP | -0.0917
38 | RRIRDRPPRLPRPRPRPTKKPRP | -0.0587
39 | RRIRDRPPRLPRPRPRPTLYPRP | 0.26
40 | RRIRDRPPRLPRPRPRPTMSPRP | 0.0526
41 | RRIRDRPPRLPRPRPRPTMVPRP | 0.028
42 | RRIRDRPPRLPRPRPRPTMYPRP | -0.107
43 | RRIRDRPPRLPRPRPRPTNDPRP | 0.0152
44 | RRIRDRPPRLPRPRPRPTPHPRP | 0.175
45 | RRIRDRPPRLPRPRPRPTQWPRP | 0.0594
46 | RRIRDRPPRLPRPRPRPTTGPRP | 0.673
47 | RRIRDRPPRLPRPRPRPTYEPRP | 0.127
48 | RRIRDRPPRLPRPRPRPTYNPRP | -0.365
49 | RRIRDRPPRLPRPRPRPVACPRP | 0.35
50 | RRIRDRPPRLPRPRPRPVAEPRP | 1.16

Row | Sequence | shrunken log2 fold change
51 | RRIRDRPPRLPRPRPRPVAGPRP | 0.851
52 | RRIRDRPPRLPRPRPRPVFHPRP | -0.707
53 | RRIRDRPPRLPRPRPRPVFRPRP | 0.18
54 | RRIRDRPPRLPRPRPRPVHEPRP | -0.0506
55 | RRIRDRPPRLPRPRPRPVHVPRP | 0.0158
56 | RRIRDRPPRLPRPRPRPVMSPRP | -0.257
57 | RRIRDRPPRLPRPRPRPVNKPRP | -0.0502
58 | RRIRDRPPRLPRPRPRPVNNPRP | 0.0566
59 | RRIRDRPPRLPRPRPRPVNVPRP | -0.96
60 | RRIRDRPPRLPRPRPRPVPGPRP | 0.214
61 | RRIRDRPPRLPRPRPRPVPKPRP | 0.32
62 | RRIRDRPPRLPRPRPRPVQDPRP | 0.0144
63 | RRIRDRPPRLPRPRPRPVQYPRP | -0.0992
64 | RRIRDRPPRLPRPRPRPVRHPRP | 0.646
65 | RRIRDRPPRLPRPRPRPVRIPRP | 0.18
66 | RRIRDRPPRLPRPRPRPVTFPRP | -0.0135
67 | RRIRDRPPRLPRPRPRPVWRPRP | 0.0883
68 | RRIRDRPPRLPRPRPRPVYTPRP | -0.0405
69 | RRIRDRPPRLPRPRPRPWCEPRP | -0.093
70 | RRIRDRPPRLPRPRPRPWCFPRP | -0.0692
71 | RRIRDRPPRLPRPRPRPWDDPRP | -0.249
72 | RRIRDRPPRLPRPRPRPWFMPRP | 0.0254
73 | RRIRDRPPRLPRPRPRPWGFPRP | 0.13
74 | RRIRDRPPRLPRPRPRPWINPRP | 0.0363
75 | RRIRDRPPRLPRPRPRPWLVPRP | -0.117
